{"source": "patent US7432342B2", "about": "“Kinase anchor protein muteins, peptides thereof and related documents” (Sequenom, Inc., priority 2002, dated 2008)", "key": {"RIα isoform of PKA": {"target": "RIα isoform of PKA (Bos taurus, UniProt P00514)", "sequence (P00514 whole entry, the tested form may be a part, canonical isoform)": "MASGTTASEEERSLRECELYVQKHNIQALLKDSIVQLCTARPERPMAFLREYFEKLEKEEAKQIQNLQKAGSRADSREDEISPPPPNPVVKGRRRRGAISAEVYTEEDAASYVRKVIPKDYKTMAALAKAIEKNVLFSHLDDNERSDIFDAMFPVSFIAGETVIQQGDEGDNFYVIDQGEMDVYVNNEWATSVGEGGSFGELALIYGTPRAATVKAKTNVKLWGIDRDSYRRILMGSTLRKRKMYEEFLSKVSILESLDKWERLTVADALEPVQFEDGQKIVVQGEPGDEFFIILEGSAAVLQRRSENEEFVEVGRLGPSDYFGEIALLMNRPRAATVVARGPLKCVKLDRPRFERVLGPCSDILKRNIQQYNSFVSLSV", "assay": "In vitro pull-down assay of GST-fused AKB domain variants (Example 1)", "type": "binding", "conditions": "GST fusion of 40 C-terminal residues of D-AKAP2; RIα 20 μM; mouse and human AKB domains", "from_the_text": "Binding of each AKB domain variant to PKA was first examined using an in vitro pull-down assay, in which the 40 C-terminal residues of D-AKAP2 (amino acids 623-662 of SEQ ID NO:64) containing the AKB were fused to glutathione-S-transferase (GST). The GST fusion constructs were made by fusing the 40 C-terminal amino acids of D-AKAP2 to the C-terminus of GST and subcloning between the NdeI and BamHI sites of pRSET (Invitrogen, Carlsbad, Calif.). The constructs were transfected into BL21 cells and expressed for 6 hours at 20° C. The cells were lysed in PBS with 5 mM BME and 0.1% Triton X-100. 3 μl of supernatant were added to 200 μl of this buffer and 10 μl glutathione beads. After three washes, RIα (53 μg, 20 μM) and RIIα (2.4 μg, 2 μM) were added to the beads, respectively, and the total volume was adjusted to 40 μl. After incubating for 30 min at 4° C., the beads were washed three times, and separated in a 10% acrylamide gel."}, "RIα": {"target": "RIα (Bos taurus, UniProt P00514)", "sequence (P00514 whole entry, the tested form may be a part, canonical isoform)": "as above", "assay": "Fluorescence anisotropy binding of labeled 27-mer AKB Ile/Val peptides (Example 2)", "conditions": "in vitro; 10 nM labeled peptide", "protocol": "To assess the magnitude of the affinity difference, binding of both Ile/Val variants to the R-subunit isoforms of PKA was analyzed in a quantitative assay. Twenty-seven residue peptides containing the two AKB domain Ile/Val variants (SEQ ID NOs:1 and 2, respectively) of D-AKAP2 with a C-terminal cysteine were synthesized by SynPep Corporation (Dublin, Calif.). The peptides were HPLC (high performance liquid chromatography) purified and mass spectrometry checked. Both peptides were labeled with tetramethyl rhodamine-5-maleiamide (Molecular Probes, Eugene, Oreg.) at the cysteine residue and HPLC purified. Increasing concentrations of RIα and RIIβ, respectively, were equilibrated with 10 nM of peptide for at least one hour at room temperature in 10 mM HEPES, 150 mM NaCl, 3 mM EDTA, 0.005% polysorbate 20. […] Fluorescence anisotropy was monitored using a Fluoromax-2 (Spex, Jobin Yvon Horiba, Edison, N.J.) equipped with polarizers. The fluorophore was excited at 541 nm (5-10 nm bandpass) and emission was monitored at 575 nm (5-10 nm bandpass). […]\nPeptides of each AKB Ile/Val variant (SEQ ID NOs:1 and 2) were synthesized and fluorescence-labeled. Binding of the labeled peptides to the regulatory subunit isoforms was monitored using a fluorescence assay in which binding of the peptide was proportional to an increase in steady state anisotropy. […]"}, "RIα-D/D-GFP": {"target": "T1, RIα-D/D-GFP (Bos taurus, UniProt P00514)", "T1 construct": "The dimerization/docking (D/D) domain of RIα and full-length RIIα were each fused with green fluorescent protein (GFP); expressed in transfected cells; host or cells: 10T(1/2) cells", "T1 sequence (P00514 2-135 limits assumed)": "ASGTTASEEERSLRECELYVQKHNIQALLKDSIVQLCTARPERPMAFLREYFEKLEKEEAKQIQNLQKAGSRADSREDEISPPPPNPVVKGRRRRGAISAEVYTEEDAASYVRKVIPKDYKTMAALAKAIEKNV", "assay": "Co-localization of PKA regulatory domain with mitochondria-targeted AKB domain in 10T(1/2) cells (Example 3)", "type": "cell-based", "conditions": "C-terminal 156 residues of D-AKAP2 fused to D-AKAP1 mitochondrial anchoring domain", "from_the_text": "The 30 amino acid mitochondrial anchoring domain of D-AKAP1 (Chen et al. (1997) J. Biol. Chem., 272:15247-57; and Huang et al. (1997) J. Biol. Chem., 272:8057-8064) was fused to the C-terminal 156 residues of mouse (amino acids 217-372 of SEQ ID NO:55) and human (amino acids 507-662 of SEQ ID NO:64) D-AKAP2, respectively, followed by a Flag-tag and subcloned into pcDNA4 (Invitrogen, Carlsbad, Calif.). The dimerization/docking (D/D) domain of RIα and full-length RIIα were each fused with green fluorescent protein (GFP) and cloned into pEGFPN1 (Clontech, Palo Alto, Calif.). […] The AKB domain was detected by immuno-staining with monoclonal antibodies against the Flag-tag (Kodak, Rochester, N.Y.) followed by rhodamine-conjugated secondary antibody (Jackson Lab, Bar Harbor, Me.). […]\nIn this assay, the AKB domain within the C-terminal 156 residues of D-AKAP2 from mouse (Val) and human (Ile) was fused to the mitochondrial anchoring domain from D-AKAP1 and tethered to the outer mitochondrial membrane (Chen et al. (1997) J. Biol. Chem., 272:15247-15257; and Huang et al. (1997) J. Biol. Chem., 272:8057-8064). The binding of the AKB domain with the PKA regulatory domains was detected as the co-transfected PKA regulatory domains co-localized to the mitochondria. […]"}, "PKA-RIα-GFP": {"target": "PKA-RIα-GFP (Bos taurus, UniProt P00514)", "sequence (P00514 1-109 limits assumed)": "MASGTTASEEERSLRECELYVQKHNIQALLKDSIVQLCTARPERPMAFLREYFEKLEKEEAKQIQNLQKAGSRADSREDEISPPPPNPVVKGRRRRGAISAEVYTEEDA", "assay": "Surface plasmon resonance (BIAcore CM5 chips)", "type": "binding", "protocol": "Two 27-mer peptides representing the Ile and Val variants (SEQ ID NOs:1 and 2, respectively) were synthesized and purified in milligram quantities and the affinity to PKA-RIα-GFP was determined using well-known surface plasmon resonance in combination with BIAcore chips (see, e.g., Current Opinion in Biotechnology (1997) 8:50-57; Current Opinion in Biotechnology (1994) 5:389-395; Current Opinion in Biotechnology (1994) 5:65-71; Structure (1995) 3:969; Current Biology (1995) pp. 699-705; Analytical Biochemistry (1991) 201:197-210; and macinfac.bio.unc.edu/biacore.html). PKA-RIα-GFP was coupled to BIAcore CM5 chips. BSA was immobilized on control chips.\nThe affinities in this assay are lower compared to those determined by fluorescence anisotropy. The most likely reason is that in this study the signal difference between the flow cell with the regulatory subunit and the control protein BSA was measured, such that slight unspecific binding to BSA directly reduces the apparent affinity. However, similar to previous results, an affinity difference of PKA-RIα-GFP to both allelic 27-mer peptides was observed (Table 6)."}, "PKA-RIIα-GFP": {"target": "PKA-RIIα-GFP (Mus musculus, UniProt P12367)", "sequence (P12367 1-46)": "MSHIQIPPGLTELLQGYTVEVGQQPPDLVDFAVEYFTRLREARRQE", "assay": "ELISA of biotinylated 27-mer peptide immobilized on neutravidin plates", "type": "binding", "conditions": "25 μM peptide on neutravidin; 0-5 μg/ml PKA-RIIα-GFP", "protocol": "The peptide biotin-bA-bA-[…] (SEQ ID NO:14) was synthesized as a C-terminal amide in milligram quantity and purified to a 96% purity by HPLC. Its identity was confirmed by MALDI TOF (matrix-assisted laser desorption ionization time-of-flight) mass spectrometry. The peptide was immobilized in neutravidin (NA)-coated 96-well microtiter plates and incubated with various concentrations of PKA-RIIα-GFP. Binding was detected using an anti-GFP antibody (3E6, Quantum Biotechnologies, QBiogene, Carlsbad, Calif.) in combination with a second horseradish peroxidase labeled antibody. Microtiterplates were coated with 40 μg/ml Neutravidin (NA) and subsequently incubated with 25 μM peptide. Various concentrations (0-5 μg/ml) of PKA-RIIα-GFP were added. Bound subunit was detected using a mouse anti-GFP antibody (1 μg/ml) and an anti-mouse-IgG-antibody labeled with peroxidase (1 μg/ml). Negative controls were utilized that contained either a microtiter plate with only neutravidine or only peptide, or neither one."}}, "note": "Read-outs that look alike come from different tables or passages of the source. Ends that are not written are not given here. Peptide text beside a SMILES is read from it.", "data": [{"compound": "Val variant: D-AKAP2 AKB domain with Val at amino acid 646 (SEQ ID NO:65), tested as GST fusion or mitochondria-targeted fusion construct (VQGNTDEAQEELAWKIAKMIVSDVMQQAQYDQPLEKSTKL; not fully specified)", "values": [{"measurement": "binding of the RIα isoform of PKA to the AKB variant", "setting": "RIα isoform of PKA", "value": "significantly higher affinity"}, {"measurement": "binding affinity to RIα compared to the Ile variant", "setting": "RIα", "value": "three-fold tighter"}, {"measurement": "targeting of RIα to the mitochondria", "setting": "RIα-D/D-GFP", "value": "effectively targeted RIα to the mitochondria"}]}, {"compound": "CC[C@H](C)[C@H](NC(=O)[C@H](CCCCN)NC(=O)[C@H](Cc1c[nH]c2ccccc12)NC(=O)[C@H](C)NC(=O)[C@H](CC(C)C)NC(=O)[C@H](CCC(=O)O)NC(=O)[C@H](CCC(=O)O)NC(=O)[C@H](CCC(N)=O)NC(=O)[C@H](C)NC(=O)[C@H](CCC(=O)O)NC(=O)[C@H](CC(=O)O)NC(=O)[C@@H](NC(=O)[C@H](CC(N)=O)NC(=O)CNC(=O)[C@H](CCC(N)=O)NC(=O)[C@@H](NC(C)=O)C(C)C)[C@@H](C)O)C(=O)N[C@@H](C)C(=O)N[C@@H](CCCCN)C(=O)N[C@@H](CCSC)C(=O)N[C@H](C(=O)N[C@H](C(=O)N[C@@H](CO)C(=O)N[C@@H](CC(=O)O)C(=O)N[C@H](C(=O)N[C@@H](CCSC)C(=O)N[C@@H](CCC(N)=O)C(=O)N[C@@H](CCC(N)=O)C(N)=O)[C@@H](C)CC)C(C)C)[C@@H](C)CC", "note": "[SEQ ID NO:16] (Ac-VQGNTDEAQEELAWKIAKMIVSDIMQQ-NH2)", "values": [{"measurement": "Kd", "setting": "PKA-RIα-GFP; PKA-RIα-GFP coupled to chip (1681 RU), BSA control chip, read-out: PKA-RIα-GFP binding affinity", "value": 860, "unit": "nM"}]}, {"compound": "CC[C@H](C)[C@H](NC(=O)[C@H](CCCCN)NC(=O)[C@H](Cc1c[nH]c2ccccc12)NC(=O)[C@H](C)NC(=O)[C@H](CC(C)C)NC(=O)[C@H](CCC(=O)O)NC(=O)[C@H](CCC(=O)O)NC(=O)[C@H](CCC(N)=O)NC(=O)[C@H](C)NC(=O)[C@H](CCC(=O)O)NC(=O)[C@H](CC(=O)O)NC(=O)[C@@H](NC(=O)[C@H](CC(N)=O)NC(=O)CNC(=O)[C@H](CCC(N)=O)NC(=O)[C@@H](NC(C)=O)C(C)C)[C@@H](C)O)C(=O)N[C@@H](C)C(=O)N[C@@H](CCCCN)C(=O)N[C@@H](CCSC)C(=O)N[C@H](C(=O)N[C@H](C(=O)N[C@@H](CO)C(=O)N[C@@H](CC(=O)O)C(=O)N[C@H](C(=O)N[C@@H](CCSC)C(=O)N[C@@H](CCC(N)=O)C(=O)N[C@@H](CCC(N)=O)C(N)=O)C(C)C)C(C)C)[C@@H](C)CC", "note": "[SEQ ID NO:15] (Ac-VQGNTDEAQEELAWKIAKMIVSDVMQQ-NH2)", "values": [{"measurement": "Kd", "setting": "PKA-RIα-GFP", "value": 500, "unit": "nM"}]}, {"compound": "VQGNTDEAQEELAWKIAKMIVSDVMQQ (not fully specified (N-terminus); listed as Homo sapiens) [SEQ ID NO:2]", "values": [{"measurement": "binding affinity to RIα compared to the Ile variant", "setting": "RIα", "value": "nearly three-fold increase in binding affinity"}]}, {"compound": "biotin-bA-bA-VQGNTDEAQEELAWKIAKMIVSDIMQQ [SEQ ID NO:14]", "values": [{"measurement": "binding to PKA-RIIα in ELISA", "setting": "PKA-RIIα-GFP", "value": "able to bind to PKA-RIIα"}]}]}
